Test system: C/EBPβ
Assay: Specificity control: C/EBPβ expression by western blot of transfected HeLa-S3 lysates
Format: cell-based
Conditions: HeLa-S3 cell lysates, FIG. 4C
Method: FIGS. 4A-4D. […] FIG. 4D is another specificity control showing that a control GFP expression vector was not affected by either IE2 291-343 or IE2 291-364. HeLa-S3 cells were transfected with both a GFP expression vector and cotransfected with either E2 291-343 or IE 291-364 expression vectors and GFP expression analyzed 24 hours later by a fluorescence activated cell sorter.
Because the IE2 291-364 region was previously mapped as one of three TBP binding sites on IE2, it was possible that the inhibitory function was due to interaction with TBP. To exclude this possibility, the expression of two other genes that contain TATA boxes in their promoters were investigated. First, an observed the expression of C/EBPβ from the expression vector by western blot (FIG. 4C) was conducted. […] Second, His-tagged inhibitors were cotransfected with ev GFP and the geometric mean brightness of transfected cells measured by flow cytometry (FIG. 4D). […] It is believed that the basis for the interaction is localized to residues 315-328 of the IE2 molecule because a variant of IE2 291-364 missing the 315-328 region (delA) lacks binding to Spi-1 ETS domain in a GST fusion pull-down assay (FIG. 5).

B1: GFP 291-364 (protein)
chain: SSHHGRGGFGGAASSSLLSCGHQSSGGASTGPRKKKSKRISELDNEKVRNIMKDKNTPFCTPNVQTRRGRVKID
modifications: left off: large carriers
B1 was tested, and the “effect on expression of C/EBPβ protein (western blot)” value was “no reduction”.

From patent publication US20070265201A1, “INHIBITORS OF IN[…] TRA[…] FROM HCMV PROTEIN IE2” (priority 2005, published 2007)
